Patent publication US20100021935A1 (FIBROSTATIN SOCIEDAD LIMITADA, published 2010)

Target: T1, recombinant 77-kDa GPBP expressed from pc-n4′ (human, UniProt Q9Y5P4 1-624)
T1 construct: untagged, transient expression in HEK 293 cells; also called 77-kDa GPBP isoform
T1 sequence: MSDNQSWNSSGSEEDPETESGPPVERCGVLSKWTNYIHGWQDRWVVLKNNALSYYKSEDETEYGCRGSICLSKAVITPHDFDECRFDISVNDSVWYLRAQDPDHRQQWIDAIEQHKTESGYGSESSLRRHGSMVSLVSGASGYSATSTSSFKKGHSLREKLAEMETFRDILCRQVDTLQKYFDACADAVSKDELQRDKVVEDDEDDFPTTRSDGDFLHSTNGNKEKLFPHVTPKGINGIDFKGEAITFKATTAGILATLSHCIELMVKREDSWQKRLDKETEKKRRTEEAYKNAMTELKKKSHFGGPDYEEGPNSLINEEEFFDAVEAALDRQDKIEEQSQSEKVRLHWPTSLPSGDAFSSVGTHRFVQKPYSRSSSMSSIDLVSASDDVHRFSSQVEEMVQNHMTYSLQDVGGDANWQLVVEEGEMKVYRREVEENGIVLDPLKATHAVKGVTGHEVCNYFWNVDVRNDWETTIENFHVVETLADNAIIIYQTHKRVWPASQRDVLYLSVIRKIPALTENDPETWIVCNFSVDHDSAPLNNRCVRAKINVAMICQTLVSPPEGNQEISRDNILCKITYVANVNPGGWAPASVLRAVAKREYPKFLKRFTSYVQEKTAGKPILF
Experiment: ex vivo cross-linking and FLAG immunoprecipitation
Experimental: Cells were grown up to 70-90% of confluence in either 150-mm plates (native GPBP) or six-well plates (recombinant GPBP). Cross-linking was performed 48 h after transfection or when cells reached the indicated confluence. Briefly, cells were brought to RT by rinsing with PBS and incubated for 10 min with culture medium containing 1% formaldehyde. The cross-link reaction was quenched with 125 mM Gly-HCl in PBS (pH 7.4) for 10 min at RT. Cells were brought to 4° C. by rinsing with ice-chilled PBS and procedure continued at 4° C. Cells were lysed with 1 or 5 ml (six-well or 150-mm plate) of extraction buffer [16 mM Tris-HCl pH 7.5, 160 mM NaCl, 2 mM ethylenediaminetetraacetic acid (EDTA), 1. […] Eluted samples were boiled with electrophoresis sample buffer (2×) for 15 min to reverse cross-linking and further analyzed by SDS-PAGE and either Coomassie blue staining or Western blot.
This was further assessed by ex vivo cross-linking and FLAG-immunoprecipitation of cells expressing or not expressing BM40-FLAG-α3(IV)NC1, a recombinant exportable form of the human α3(IV)NC1 (16), followed by SDS-PAGE analysis of immunoprecipitates (FIG. 4A). […] To further determine that GPBP indeed interacted with FLAG-α3(IV) in the ER, cells expressing or not expressing BM40-FLAG-α3(IV)NC1 were transfected with pc-n4′ and similarly analyzed (FIG. 4B).

B1: FLAG-α3(IV)NC1, recombinant exportable human α3(IV)NC1 domain (BM40-FLAG-α3(IV)NC1) (other, not shown: small tags and cut ends)
chain: GLKGKRGDSGSPATWTTRGFVFTRHSQTTAIPSCPEGTVPLYSGFSFLFVQGNQRAHGQDLGTLGSCLQRFTTMPFLFCNVNDVCNFASRNDYSYWLSTPALMPMNMAPITGRALEPYISRCTVCEGPAIAIAVHSQTTDIPPCPHGWISLWKGFSFIMFTSAGSEGTGQALASPGSCLEEFRASPFLECHGRGTCNYYSNSYSFWLASLNPERMFRKPIPSTVKAGELEKIISRCQVCMKKRH
notes: expressed in HEK 293-FLAG-α3(IV) cells; also called type IV collagen
B1: binds.
